From paper PMC12112554, “Estrogen-Related Receptor Potential Target Genes in Silkworm (Bombyx mori): Insights into Metabolic Regulation”

T1: BmERR DBD (Bombyx mori, UniProt A0A1B1M0R7 103-178)
T1 sequence: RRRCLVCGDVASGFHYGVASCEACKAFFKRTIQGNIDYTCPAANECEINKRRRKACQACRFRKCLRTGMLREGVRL

B1: Acyl CRE1 (dsDNA)
DNA 1: TATATTGCCCTTGTAAGT
DNA 2: ACTTACAAGGGCAATATA
B2: Ca7 CRE4 (dsDNA)
DNA 1: ATTCAATAGGTTATTTCT
DNA 2: AGAAATAACCTATTGAAT
B3: Ca7 CRE2 (dsDNA)
DNA 1: TTTATTGCCCTTGTAGGC
DNA 2: GCCTACAAGGGCAATAAA
B4: GK CRE1 (dsDNA)
DNA 1: CCCCATGACCTTCGCCGG
DNA 2: CCGGCGAAGGTCATGGGG
B5: GlyP CRE3 (dsDNA)
DNA 1: ACGTCCAACGTCAAACCA
DNA 2: TGGTTTGACGTTGGACGT
B6: UGT33D8 CRE2 (dsDNA)
DNA 1: TCAGGCAAGGTCAAAGCC
DNA 2: GGCTTTGACCTTGCCTGA
B7: FAH CRE1 (dsDNA)
DNA 1: TTTTTCCAAGGACGTTTGAG
DNA 2: CTCAAACGTCCTTGGAAAAA
B8: Akr2e CRE2 (dsDNA)
DNA 1: ACTAGTTAAGGTTACGCTGA
DNA 2: TCAGCGTAACCTTAACTAGT
B9: Ca7 CRE3 (dsDNA)
DNA 1: GACTTCGAATGTCATGTCGC
DNA 2: GCGACATGACATTCGAAGTC
B10: Ca7 CRE1 (dsDNA)
DNA 1: TAATGTGACTTTGAATCG
DNA 2: CGATTCAAAGTCACATTA
B11: GK CRE3 (dsDNA)
DNA 1: GATTGTCAATGTCAATGTCATGAACA
DNA 2: TGTTCATGACATTGACATTGACAATC
B12: HPD CRE1 (dsDNA)
DNA 1: ACACGCGCCCTTTATATA
DNA 2: TATATAAAGGGCGCGTGT
B13: HPD CRE2 (dsDNA)
DNA 1: GGACTATAACCTCGTCTCTT
DNA 2: AAGAGACGAGGTTATAGTCC
B14: UGT46A2 CRE2 (dsDNA)
DNA 1: TCGTCGTAACCTTAAAGATA
DNA 2: TATCTTTAAGGTTACGACGA
B15: HPD CRE3 (dsDNA)
DNA 1: TCCACAAACGTCAATAGC
DNA 2: GCTATTGACGTTTGTGGA
B16: Atgl CRE3 (dsDNA)
DNA 1: CGCTCTGACATTGAAAAG
DNA 2: CTTTTCAATGTCAGAGCG
B17: TPS CRE3 (dsDNA)
DNA 1: GGCTGTAACCTTGTCCTC
DNA 2: GAGGACAAGGTTACAGCC
B18: Aldh1b1 CRE3 (dsDNA)
DNA 1: CCTGGTTAAGGTTAGAAGTC
DNA 2: GACTTCTAACCTTAACCAGG
B19: Chsy1 CRE1 (dsDNA)
DNA 1: TCTCACAAGGTTGATGTC
DNA 2: GACATCAACCTTGTGAGA
B20: Tret1 CRE1 (dsDNA)
DNA 1: AGCTTCTCCTTGACGTGTAG
DNA 2: CTACACGTCAAGGAGAAGCT
B21: Tret1 CRE2 (dsDNA)
DNA 1: TTTTTGTAACCTTAAACTCCT
DNA 2: AGGAGTTTAAGGTTACAAAAA
B22: Tret1 CRE3 (dsDNA)
DNA 1: GCGGACTCACAAGGTCCTACCA
DNA 2: TGGTAGGACCTTGTGAGTCCGC

biological target: T1, BmERR DBD; test: EMSA; EMSA, Beyotime kit buffer (composition not given), 25 °C 25 min; 5% native PAGE in 1x TBE (45 mM Tris-borate, 1 mM EDTA, pH 8.3); settings: protein: recombinant; label: biotin 3'; blunt

Binder	binding result
B1	binds
B2	binds
B3	binds
B4	binds
B5	binds
B6	binds
B7	binds
B8	binds
B9	binds
B10	binds
B11	binds
B12	binds
B13	binds
B14	binds
B15	binds
B16	binds
B17	binds
B18	binds
B19	binds

biological target: T1, BmERR DBD; test: EMSA; not among Table 2 motifs; EMSA, Beyotime kit buffer (composition not given), 25 °C 25 min; 5% native PAGE in 1x TBE (45 mM Tris-borate, 1 mM EDTA, pH 8.3); settings: protein: recombinant; label: biotin 3'; blunt

Binder	binding result
B20	binds
B21	binds

biological target: T1, BmERR DBD; test: EMSA; listed in Table 2; text names only CRE1 and CRE2; EMSA, Beyotime kit buffer (composition not given), 25 °C 25 min; 5% native PAGE in 1x TBE (45 mM Tris-borate, 1 mM EDTA, pH 8.3); settings: protein: recombinant; label: biotin 3'; blunt

Binder	binding result
B22	binds
